According to patent publication US20250027945A1 (University of California, published 2025):
Each block holds one binder with its values, some of them ahead of it.

B1: 7-H10 anti-human RYK mAb (antibody, V domains shown)
VH: QVQLQQSGAELAKPGTSVKLSCKASGYIFTNYDINWVRQRPEQGLEWIGWIFPGDDSTKYNEKFEGKAALTTDKSSNTAYIQLSRLTSGDSAVYFCTRYHYYGSSLGWSFDVWGAGTSVTVSS
VL: EIVLTQSPALMAASPGEKVTITCSVSSRISSINLHWYQQKSETSPKTWIYGTSNLASGVPSRFSGSGSGTSYSLTISNMEAEDAATYYCQQWSSYPYTFGGGTKVEIK
notes: Mouse hybridoma mAb, kappa light chain, detected with anti-mouse IgG; also called mAb 7-H10
B4: recombinant human RYK protein used in KinExA (receptor, UniProt P34925 46-227, looked up)
chain: AAPAPRPPELQSASAGPSVSLYLSEDEVRRLIGLDAELYYVRNDLISHYALSFSLLVPSETNFLHFTWHAKSKVEYKLGFQVDNVLAMDMPQVNISVQGEVPRTLSVFRVELSCTGKVDSEVMILMQLNLTVNSSKNFTVLNFKRRKMCYKKLEEVKTSALDKNTSRTIYDPVHAAPTTSTR
notes: Legend prints 'RYK2'; also called recombinant human RYK2 protein

What was measured:
[1] = target: B4; experiment: KinExA 3200, soluble RYK competitor against RYK-coated particles
Method: (§1) Analysis was performed using a KinExA 3200 instrument. FIG. 7A: The proportion of anti-human RYK mAb bound to particles coated with RYK protein (y-axis) in the presence of increasing molar (M) concentration of soluble RYK competitor (x-axis) is shown for 2-D11 mAb (upper left panel) and 7-H10 mAb (lower left panel).

[2] = target: T1, recombinant extracellular protein of mouse RYK (mouse, UniProt Q01887 35-211); experiment: immunoblot of recombinant extracellular protein on nylon membrane
T1 construct: also called mRYK; not shown: rabbit IgG tag for purification
Method: (§2) FIG. 4A illustrates experiments in which binding of 2-D11, 7-H10, 3-C12, 11-E9, 6-B5, 6-D10 and sheep anti-RYK mAb was assessed using recombinant human RYK proteins (SEQ ID NO:129) in which one amino acid that differs between human and mouse RYK within the extracellular domain was replaced with the corresponding amino acid of mouse RYK. Each recombinant protein was transferred onto nylon membrane, probed with the indicated anti-RYK mAb or Sheep anti-RYK Ab, and detected with an anti-mouse IgG or donkey-anti-sheep antibody conjugated with horse radish peroxidase. […]
The anti-human RYK mAbs, 2-D11 and 7-H10, appear specific for an amino terminal epitope of human Ryk (residues 46-57) that are distinct from those in mouse Ryk (FIG. 3); these mAbs also bind mutant forms of Ryk containing amino acid substitutions in human Ryk at positions that differ from that of the highly homologous mouse Ryk to assimilate mouse Ryk at the site of substitution, with amino acid sequence shown in FIG. 3, as shown by immunoblot analyses of recombinant extracellular proteins of human or mouse or each of the various mutant forms of human Ryk (FIG. 4) For this, the binding of 2-D11, 7-H10, or Sheep anti-RYK mAb was assessed using recombinant extracellular RYK proteins as specified in the Key. […]

[3] = target: T1, recombinant extracellular protein of …; experiment: dot blot of recombinant RYK proteins (rabbit IgG tag) on nylon membrane, probed with the mAb, anti-mouse IgG-HRP
Method: as §2, with “FIGS. 4A-4B illustrate the […] of amino acids required for binding of anti-human RYK mAb to the extracellular domain of human RYK (SEQ ID NO:129). FIG.” for “FIG.”, “peroxidase. Rabbit anti-IgG blotting is a positive for protein blotting and detection as recombinant proteins have a rabbit IgG tag for purification. Alignment of the protein sequences of the extracellular domain of human and mouse RYK are shown in the lower panel and the boxed amino acids indicate the amino acids changes made for each recombinant protein.” for “peroxidase.”

7-H10 anti-human RYK mAb = target: B1; experiment: KinExA 3200: free mAb captured on RYK-coated particles in the presence of rising molar concentration of soluble RYK
Method: as §1

binding result [3]: no binding
B2: 3C12 (antibody, V domains shown)
VH: QVQLKESGPGLVAPSQSLSITCTVSGFSLNGYGVNWVRQPPGKDLEWLGMIWGDGITEFNSALKSRLSISKDNSKSQVFLKMNSLQTEDTARYYCVRQGSGVWFAYWGQGTLVS
VL: DVLVTQTPLSLPVSLGDQASISCRSSQTIVHSNGNTYLEWYLQKPGQSPKLLIYKVSNRFSGVPDRFSGSGSGTDFTLKISRVEAEDLGVYYCFQGSHVPYTFGGGTKLEIK
notes: anti-human RYK mAb; also called 3C12 mAb

binding result [3]: no binding
B3: 11E9 (antibody, V domains shown)
VH: QVQLKESGPGLVAPSQSLSITCTVSGFSLNGYGVNWVRQPPGKDLEWLGMIWGDGITEFNSALKSRLSISKDNSKSQVFLKMNSLQTEDTARYYCVRQGSGVWFAYWGQGTLS
VL: DVLVTQTPLSLPVSLGDQASISCRSSQTIVHSNGNTYLEWYLQKPGQSPKLLIYKVSNRFCGVPDRFSGSGSGTDFTLKISRVEAEDLGVYYCFQGSHVPYTFGGGTKLEIK
notes: anti-human RYK mAb; also called 11E9 mAb

Further lines, the binder ahead of its results:

Binder: B1
Kd [1]: 10.6 nM | binding result [2]: no binding

Binder: B4
IC50 (read off the curve) (7-H10 anti-human RYK mAb): ~20 nM
